Reference: publication doi:10.1101/2023.01.03.522599, “Crystal structure of a mammalian CMTM6 and its interaction model with PD-L1” (bioRxiv, 2023)

Biological target: T1, human PD-L1, BRIL fused to the C-terminus, C-terminally His-tagged (human, UniProt Q9NZQ7 19-290)
T1 construct: PD-L1, human; probably ED, TMD and CD together; also called hPD-L1; source: purified; not shown: BRIL, C-terminal, kept; His-tag, C-terminal, kept
Assay: pull-down; purified C-terminally His-tagged hPD-L1 variants (BRIL fused) used to pull down purified His-tag free bCMTM6 variants (BRIL fused); examined by SDS-PAGE
Settings: both partners purified

T1 sequence (Q9NZQ7 19-290): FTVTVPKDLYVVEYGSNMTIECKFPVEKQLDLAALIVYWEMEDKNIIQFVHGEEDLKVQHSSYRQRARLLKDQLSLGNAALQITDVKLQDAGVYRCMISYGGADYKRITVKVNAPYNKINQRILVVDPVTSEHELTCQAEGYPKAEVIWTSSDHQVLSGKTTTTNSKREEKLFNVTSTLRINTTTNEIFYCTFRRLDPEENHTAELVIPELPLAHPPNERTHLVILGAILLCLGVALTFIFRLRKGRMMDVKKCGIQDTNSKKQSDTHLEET

B1: bovine CMTM6 protein (CKLF-like MARVEL transmembrane domain-containing protein 6), BRIL fused to the C-terminus (natural protein, UniProt Q3ZBE8 1-182, looked up)
chain: MENGQVYRATTEAHPGPGIGPRSGLAAYFTLSRLTGFRRLKLLELVLSLLAFICEEVVSQCTLCGGLYFFEFVSCSAFLLSLLILVVYCTPVYDRVDPAKVKSSDFFITLGTGLVFFVASLTFTLTHDNTIAEIAAIVFGMLASLTYLAEFSFMLREKLKEPRPRKGEATMRREHLTEPLNA
notes: CMTM6, bovine; the crystal structure holds residues 33-165, and 32 amino-terminal and 17 carboxy-terminal residues were not modeled; Whether BRIL was on the crystallized sample is not clear from 'bCMTM6(-BRIL)'; also called bCMTM6; bCMTM6(-BRIL); source: purified (size-exclusion column); not shown: BRIL, C-terminal, kept
B1: binds.
